Test results taken from US20150359861.

Biological target: Nicotinamide phosphoribosyltransferase (Nampt) (UniProt P43490)
Chain of UniProt P43490 (P43490 whole entry, looked up): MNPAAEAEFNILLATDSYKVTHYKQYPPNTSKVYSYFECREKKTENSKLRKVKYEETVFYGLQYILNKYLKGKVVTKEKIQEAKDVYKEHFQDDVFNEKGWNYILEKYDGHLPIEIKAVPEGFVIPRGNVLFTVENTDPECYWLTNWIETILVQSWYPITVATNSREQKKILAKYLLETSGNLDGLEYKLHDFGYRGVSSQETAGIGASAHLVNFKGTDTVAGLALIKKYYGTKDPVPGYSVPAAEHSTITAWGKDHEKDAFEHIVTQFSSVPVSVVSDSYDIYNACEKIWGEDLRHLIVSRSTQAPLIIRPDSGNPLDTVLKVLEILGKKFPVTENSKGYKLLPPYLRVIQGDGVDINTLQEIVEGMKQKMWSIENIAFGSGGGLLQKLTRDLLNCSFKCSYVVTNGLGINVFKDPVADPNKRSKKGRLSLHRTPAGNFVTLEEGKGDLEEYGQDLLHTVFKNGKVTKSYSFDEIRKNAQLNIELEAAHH

Substance: purified recombinant human Eno1
- Nampt activity (Cyclex Nampt activity assay kit on anti-Nampt immunoprecipitates of lysates from myotubes treated with 500 or 1000 ug/ml Eno1 for 48 hours): Eno1 treatment increased Nampt activity
